Laboratory results as given in US20250223366A1, “MONOCLONAL ANTIBODIES AND BISPECIFIC ANTIBODY AGAINST C-MET” (BIOTHEUS INC., priority 2022, published 2025).

Assays:
A375/H1975/HCC827 cells = assay: ADCC induction, CD16a-NFAT-Luc Jurkat reporter gene cells; type: cell-based, human; conditions: A375, H1975, HCC827 target cells, CD16a-NFAT-Luc Jurkat effector cells, 6 h, FIG. 9
Text: A375 cells were human malignant melanoma cells and purchased from Addexbio, which were capable of expressing EGFR and c-Met receptors. H1975 cells were human lung adenocarcinoma cells and purchased from Addexbio, which were capable of highly expressing EGFR and c-Met receptors. HCC827 cells were human non-small cell lung cancer cells and purchased from the Cell Bank of the Chinese Academy of Sciences, which were capable of highly expressing EGFR and c-Met receptors. […]

[1] = test system: H292 human lung cancer tumor cells; assay: Experimental Model 1: H292 tumor-bearing model; type: in vivo, CB-17 SCID mice; conditions: H292, Day 7: 10 mg/kg; Day 21: 2 mg/kg; last measured 29 days after inoculation
Experimental: In this experiment, CB-17 SCID mice were subcutaneously inoculated with H292 human lung cancer tumor cells to establish a tumor-bearing model and determine the anti-tumor effect of the anti-EGFRxc-Met bispecific antibody. Sufficient H292 cells were cultured and expanded in vitro, and the cells were collected after trypsin digestion. After washing with PBS for 3 times, the cells were counted and inoculated subcutaneously at the right abdomen of female 8-week-old CB-17 SCID mice (purchased from Beijing Weitong Lihua) at an amount of 3×10^6 cells/mouse. The subcutaneous tumor formation of tumor cells in the mice was observed daily, and the maximum width axis W and the maximum length axis L of the subcutaneous tumor on the right abdomen of each animal were measured with a vernier caliper, and the weight of each mouse was weighed with an electronic balance. The subcutaneous tumor volume on the right abdomen of each mouse was calculated according to the following formula: tumor volume T=1/2×W×W×L. The mice with too large and too small tumor volumes were eliminated, and the remained mice were divided into 4 groups according to the average tumor volume, with 6 mice in each group. […]
The tumor volume and weight of mice were measured 2 to 3 times a week. The weight and tumor volume of mice were measured for the last time 29 days after the tumor cell inoculation, and then the mice were euthanized.

human c-MET protein = human c-MET protein (Homo sapiens, UniProt P08581); assay: ForteBio affinity assay, human c-Met; type: binding
human c-MET protein, sequence (P08581 25-1390): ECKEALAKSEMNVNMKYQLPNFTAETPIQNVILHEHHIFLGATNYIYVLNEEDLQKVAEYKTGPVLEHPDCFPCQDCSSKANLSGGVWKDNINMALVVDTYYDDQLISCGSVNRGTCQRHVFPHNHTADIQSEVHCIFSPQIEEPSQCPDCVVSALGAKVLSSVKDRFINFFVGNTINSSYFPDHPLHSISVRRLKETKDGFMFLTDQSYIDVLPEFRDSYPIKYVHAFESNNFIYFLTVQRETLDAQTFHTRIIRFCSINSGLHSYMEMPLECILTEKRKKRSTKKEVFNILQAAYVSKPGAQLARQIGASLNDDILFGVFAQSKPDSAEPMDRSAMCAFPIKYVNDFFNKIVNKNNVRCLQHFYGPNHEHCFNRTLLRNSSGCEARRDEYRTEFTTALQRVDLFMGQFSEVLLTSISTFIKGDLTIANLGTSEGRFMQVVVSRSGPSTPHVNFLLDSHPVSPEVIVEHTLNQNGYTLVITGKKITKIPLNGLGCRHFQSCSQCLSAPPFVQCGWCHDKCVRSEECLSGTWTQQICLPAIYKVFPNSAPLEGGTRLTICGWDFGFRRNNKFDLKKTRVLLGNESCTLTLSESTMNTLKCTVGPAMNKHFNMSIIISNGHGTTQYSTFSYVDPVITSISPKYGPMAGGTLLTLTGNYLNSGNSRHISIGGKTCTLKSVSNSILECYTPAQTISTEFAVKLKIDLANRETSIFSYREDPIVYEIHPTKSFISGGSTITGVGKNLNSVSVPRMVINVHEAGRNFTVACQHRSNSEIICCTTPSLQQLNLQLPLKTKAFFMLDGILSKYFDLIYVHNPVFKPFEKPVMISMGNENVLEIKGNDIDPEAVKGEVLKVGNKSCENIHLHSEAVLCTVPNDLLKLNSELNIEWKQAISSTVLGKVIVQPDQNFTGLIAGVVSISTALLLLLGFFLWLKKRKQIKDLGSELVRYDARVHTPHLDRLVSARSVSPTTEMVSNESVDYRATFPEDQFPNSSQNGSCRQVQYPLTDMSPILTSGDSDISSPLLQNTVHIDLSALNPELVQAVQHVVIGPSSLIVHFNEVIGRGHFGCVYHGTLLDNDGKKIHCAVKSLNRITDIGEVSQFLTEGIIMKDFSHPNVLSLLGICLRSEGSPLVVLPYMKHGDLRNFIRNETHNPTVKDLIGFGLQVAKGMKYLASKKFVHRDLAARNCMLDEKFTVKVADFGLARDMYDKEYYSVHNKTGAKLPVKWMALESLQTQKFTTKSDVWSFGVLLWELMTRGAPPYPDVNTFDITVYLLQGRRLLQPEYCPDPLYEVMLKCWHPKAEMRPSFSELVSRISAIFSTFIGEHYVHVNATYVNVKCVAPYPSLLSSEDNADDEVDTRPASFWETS
Experimental: (§1) After the antibodies were prepared, the ForteBio affinity assay was performed according to the reported method (Estep, P et al., Determination of antibody-antigen affinity and epitope binding based on high-throughput methods. MAbs, 2013.5(2): p. 270-8).

monkey c-MET protein = assay: ForteBio affinity assay, monkey c-Met; type: binding
Experimental: as §1

[2] = test system: HGF-c-MET signaling pathway; assay: Blocking of HGF-c-MET signaling pathway in Gefitinib-treated HCC827 cells (single antibody concentration); type: cell-based, human; conditions: 3 days, Cell titer glo, FIG. 2
Experimental: HCC827 cells were human non-small cell lung cancer cells (purchased from the Cell Bank of the Chinese Academy of Sciences), which highly express epidermal growth factor receptor EGFR (exon 19 deletion) and c-Met receptor. The treatment with small molecule tyrosine kinase inhibitor (TKI) Gefitinib (gefitinib, an epidermal growth factor receptor tyrosine kinase inhibitor) would induce apoptosis in HCC827 cells. If HGF was added at the same time under such conditions, the c-Met pathway would be activated to induce HCC827 to produce resistance to Gefitinib, thereby inhibiting apoptosis.
The cell density of the HCC827 cells after the expanded culture was adjusted to 2×10^4 cells/ml, added to a 96-well cell culture plate at 100 μl/well, and cultured overnight for later use. The antibody to be tested was diluted to 1000 nM with 1640 medium, HGF was diluted to 800 ng/mL, and Gefitinib was diluted to 8 μM. According to the experimental requirements, the diluted antibody at 50 μl/well, HGF at 25 μl/well, and Gefitinib at 25 μl/well were added to the 96-well plate with HCC827 cells, and supplemented with 1640 medium to reach a total volume of 200 μl/well. After culturing for 3 days at 37° C. and 5% carbon dioxide, 100 μl of the medium was removed, and then Cell titer glo (purchased from Promega) was added at 100 μl/well, and the chemiluminescent signal was collected with an microplate reader.

Row | Molecule | ADCC effect (A375/H1975/HCC827 cells) | tumor (volume) inhibition rate (TGI) [1] [%] | Koff (human c-MET protein) [s⁻¹] | Kon (human c-MET protein) [M⁻¹ s⁻¹] | Koff (monkey c-MET protein) [s⁻¹] | Kon (monkey c-MET protein) [M⁻¹ s⁻¹] | restoring the proliferation inhibitory effect of Gefitinib on HCC827 cells by blocking HGF-c-MET signaling [2]
1 | Amivantamab analog Afu: control bispecific antibody obtained from the afucosylation cell line with gene knockout (antibody, chains of the INN, looked up, V domains shown, afucosylated, control bispecific antibody obtained from the afucosylation cell line with gene knockout) VH: QVQLVESGGGVVQPGRSLRLSCAASGFTFSTYGMHWVRQAPGKGLEWVAVIWDDGSYKYYGDSVKGRFTISRDNSKNTLYLQMNSLRAEDTAVYYCARDGITMVRGVMKDYFDYWGQGTLVTVSS VL: AIQLTQSPSSLSASVGDRVTITCRASQDISSALVWYQQKPGKAPKLLIYDASSLESGVPSRFSGSESGTDFTLTISSLQPEDFATYYCQQFNSYPLTFGGGTKVEIK VH2: QVQLVQSGAEVKKPGASVKVSCETSGYTFTSYGISWVRQAPGHGLEWMGWISAYNGYTNYAQKLQGRVTMTTDTSTSTAYMELRSLRSDDTAVYYCARDLRGTNYFDYWGQGTLVTVSS VL2: DIQMTQSPSSVSASVGDRVTITCRASQGISNWLAWFQHKPGKAPKLLIYAASSLLSGVPSRFSGSGSGTDFTLTISSLQPEDFATYYCQQANSFPITFGQGTRLEIK | stronger ADCC effect than the wild-type antibody containing fucose | 74.5 | – | – | – | – | –
2 | 136: anti-c-MET antibody from yeast display screening; VH SEQ ID NO: 9, VL SEQ ID NO: 11 (antibody, V domains shown) VH: EVQLQESGPGLVKPSETLSLTCTVSGGSVTSVNYYWKWIRQPPGKGLEWIGYISYSGNTNYNPSLKSRVTISVDTSKNQFSLKLSSVTAADTAVYYCVRAPYYYMDVWSKGTTVTVSS VL: DIVMTQSPSSVSASVGDRVTITCRASQGISSWLAWYQQKPGKAPKLLIYAVSSLQSGVPSRFSGSGSGTDFTLTISSLQPEDFATYFCQQANSFPLTFGGGTKVEIK | – | – | 6.71e-06 | 229000 | 0.000426 | 369000 | could restore the proliferation inhibitory effect of Gefitinib on HCC827 cells
3 | 187: anti-c-MET antibody from yeast display screening; VH SEQ ID NO: 13, VL SEQ ID NO: 15 (antibody, V domains shown) VH: ELQLQESGPGLVKPSETLSLTCTVSGGSISSSSYYWGWIRQSPGKGLEWIGSRYYSGNTYYNPSLKSRVTMSVDTSKNQFSLKLRSVTAADTAVYYCARQVYDYWRDWGQGALVTVSS VL: DIVMTQSPSSVSASVGDRVTITCRASQGISSWLAWYQQKPGKAPNLLIYAASNLPSGVPSRFSGSGSGTVFTLTISSLQPEDFATYYCQQSNSFPLTFGGGTKVEIK | – | – | 0.000369 | 220000 | 0.000947 | 324000 | could restore the proliferation inhibitory effect of Gefitinib on HCC827 cells
